Experimental findings from publication PMC6179375 (Science Advances, 2018) are described below.

The target in the assay is T1, Ac-(NPNA)2-NH2 peptide (Plasmodium falciparum (synthetic repeat …)).
T1 construct: two NPNA repeats of the central repeat region of P. falciparum circumsporozoite protein (PfCSP); also called (NPNA)2 peptide; source: synthetic peptide, bought: InnoPep Inc. (>98% purity)
T1 chain: Ac-NPNANPNA-NH2
Nature of the assay: ITC; MicroCal Auto-iTC200; peptide 134 uM in the syringe, Fab in the cell (9.2 uM Fab311, 9.6 uM Fab311R); Dulbecco's PBS; 25 °C; triplicate experiments, 16 injections. The following applies: both partners purified.

Where a chain is given by its changes, count along the chain named.

B1: Fab311 (Fab of monoclonal antibody mAb311) (Fab, V domains shown)
VH: QVQLVESGGGVVPPGRSLRLSCATSGFTFSNYGMHWVRQAPGKGLEWVAIIWYDGSRNFYAASVEGRFTISRDNSKNTLYLQMNSLRVEDTAVYYCARAAYYDTSGYGDYWGQGTLVTVSS
VL: QSVLTQPPSVSGAPGQTVTISCTGGSSNIGAGYDVHWYQQLPGTAPKLLIYGNINRPSGVPDRFSGSKSGTSASLAITGLQAEDEADYYCQSYDRRLSGSWVFGGGTKLTVL
notes: heavy chain of Fab311; cryo-EM models 6MHG and 6MB3 hold the variable domains only; germline IGHV3-33*01; light chain of Fab311; germline IGLV1-40*01; human antibody isolated from an RTS,S/AS01B vaccinee; source: FreeStyle 293-F cells, purified as previously described (15)
What is called Kd is the concentration at which binding is half-saturated. The stoichiometry N is a count of units in the complex or per binding partner. Regarding B1, the Kd was determined as 160 ± 7 nM and the “stoichiometry N” value was 1.19 ± 0.04.

B2: Fab311R (Fab311 inter-Fab contact residue reverted) (Fab, V domains shown)
VH: B1 VH with N31S, R57N, N58K, E65K
VL: B1 VL with R95S, R96S
notes: the PDB entries hold the parent Fab311; also called germline-reverted Fab311; source: FreeStyle 293-F cells
In the case of B2, the Kd turned out to be 135 ± 56 nM and the “stoichiometry N” value is 1.21 ± 0.03.
